We go through 3 proteins from article PMC9828552.

Substrate in data set [1]: O=CO
In words: purified protein. As to conditions: 3 mM NAD+, 25 mM potassium phosphate pH 7.5, 25 °C.

Substrate in data set [2]: C[C@H](N)C(=O)O
In words: purified protein. As to conditions: oxidative deamination, 1 mM NAD+, 100 mM NaHCO3 pH 10, 25 °C.

B1: AlaDH-FDH-His fusion protein (FDH domain) ([Candida] boidinii) (protein)
chain: MKIVLVLYDAGKHAADEEKLYGCTENKLGIANWLKDQGHELITTSDKEGETSELDKHIPDADIIITTPFHPAYITKERLDKAKNLKLVVVAGVGSDHIDLDYINQTGKKISVLEVTGSNVVSVAEHVVMTMLVLVRNFVPAHEQIINHDWEVAAIAKDAYDIEGKTIATIGAGRIGYRVLERLLPFNPKELLYYDYQALPKEAEEKVGARRVENIEELVAQADIVTVNAPLHAGTKGLINKELLSKFKKGAWLVNTARGAICVAEDVAAALESGQLRGYGGDVWFPQPAPKDHPWRDMRNKYGAGNAMTPHYSGTTLDAQTRYAEGTKNILESFFTGKFDYRPQDIILLNGEYVTKAYGKHDKK
By Km is commonly meant the substrate concentration at which the rate is half of its maximum. The kcat is the number of substrate molecules converted per active site and unit of time at saturation. For B1, in the data set “purified protein [1]”, the Km was 7.8 ± 1.4 mM and the catalytic constant (kcat) came out at 0.7 s⁻¹.

B2: WT FDH (CbFDH) ([Candida] boidinii) (protein)
chain: MKIVLVLYDAGKHAADEEKLYGCTENKLGIANWLKDQGHELITTSDKEGETSELDKHIPDADIIITTPFHPAYITKERLDKAKNLKLVVVAGVGSDHIDLDYINQTGKKISVLEVTGSNVVSVAEHVVMTMLVLVRNFVPAHEQIINHDWEVAAIAKDAYDIEGKTIATIGAGRIGYRVLERLLPFNPKELLYYDYQALPKEAEEKVGARRVENIEELVAQADIVTVNAPLHAGTKGLINKELLSKFKKGAWLVNTARGAICVAEDVAAALESGQLRGYGGDVWFPQPAPKDHPWRDMRNKYGAGNAMTPHYSGTTLDAQTRYAEGTKNILESFFTGKFDYRPQDIILLNGEYVTKAYGKHDKK
As to B2, in “purified protein [1]”, the Km worked out at 5.0 ± 1.0 mM and the kcat came out at 1.3 s⁻¹.

B3: AlaDH-FDH-His fusion protein (AlaDH domain) (Halomonas elongata DSM 2581) (protein)
chain: MKIAVPKEIKNHEYRVALTPSGARELVGRGHDVIVQAAAGEGAGFSDADFEAAGARLEADVAKLWDDAELILKVKEPQAEEVARLSAGQTLFTYLHLAAEESLTKGLLDSGATCIAYETITAPEGGLPLLAPMSTVAGRMAVQAGAHSLEKAQGGAGILLPGVPGVAPARVTVIGGGVVGENAARMALGLGAEVTVLDKSIPRLETLDDRYQGRMKTVFSTADALEEAVRESDLIIGAVLVPGAAAPKLITRDMLSDMKPGSVLVDVAIDQGGCFETSKPTTHAEPTYVVDGVVHYCVANMPGAVARTSTQALTNATLPFVVALADKGWQKALADDDHFAAGLNVHDGKLTYRAVAEAFGLEYVEAASLIG
B3: in “purified protein [2]”, the Km was found to be 11.4 ± 1.5 mM and the catalytic constant (kcat) was determined as 1.7 s⁻¹.
